Values quoted from earlier work in patent US8536129B2, “Treatment for anxiety” (NoNO Inc., priority 2007, dated 2013).

Target: N-type calcium channels (Homo sapiens, UniProt Q00975)
Conditions: reported in co-pending application 60/904,507

Sequence of N-type calcium channels (Q00975 whole entry): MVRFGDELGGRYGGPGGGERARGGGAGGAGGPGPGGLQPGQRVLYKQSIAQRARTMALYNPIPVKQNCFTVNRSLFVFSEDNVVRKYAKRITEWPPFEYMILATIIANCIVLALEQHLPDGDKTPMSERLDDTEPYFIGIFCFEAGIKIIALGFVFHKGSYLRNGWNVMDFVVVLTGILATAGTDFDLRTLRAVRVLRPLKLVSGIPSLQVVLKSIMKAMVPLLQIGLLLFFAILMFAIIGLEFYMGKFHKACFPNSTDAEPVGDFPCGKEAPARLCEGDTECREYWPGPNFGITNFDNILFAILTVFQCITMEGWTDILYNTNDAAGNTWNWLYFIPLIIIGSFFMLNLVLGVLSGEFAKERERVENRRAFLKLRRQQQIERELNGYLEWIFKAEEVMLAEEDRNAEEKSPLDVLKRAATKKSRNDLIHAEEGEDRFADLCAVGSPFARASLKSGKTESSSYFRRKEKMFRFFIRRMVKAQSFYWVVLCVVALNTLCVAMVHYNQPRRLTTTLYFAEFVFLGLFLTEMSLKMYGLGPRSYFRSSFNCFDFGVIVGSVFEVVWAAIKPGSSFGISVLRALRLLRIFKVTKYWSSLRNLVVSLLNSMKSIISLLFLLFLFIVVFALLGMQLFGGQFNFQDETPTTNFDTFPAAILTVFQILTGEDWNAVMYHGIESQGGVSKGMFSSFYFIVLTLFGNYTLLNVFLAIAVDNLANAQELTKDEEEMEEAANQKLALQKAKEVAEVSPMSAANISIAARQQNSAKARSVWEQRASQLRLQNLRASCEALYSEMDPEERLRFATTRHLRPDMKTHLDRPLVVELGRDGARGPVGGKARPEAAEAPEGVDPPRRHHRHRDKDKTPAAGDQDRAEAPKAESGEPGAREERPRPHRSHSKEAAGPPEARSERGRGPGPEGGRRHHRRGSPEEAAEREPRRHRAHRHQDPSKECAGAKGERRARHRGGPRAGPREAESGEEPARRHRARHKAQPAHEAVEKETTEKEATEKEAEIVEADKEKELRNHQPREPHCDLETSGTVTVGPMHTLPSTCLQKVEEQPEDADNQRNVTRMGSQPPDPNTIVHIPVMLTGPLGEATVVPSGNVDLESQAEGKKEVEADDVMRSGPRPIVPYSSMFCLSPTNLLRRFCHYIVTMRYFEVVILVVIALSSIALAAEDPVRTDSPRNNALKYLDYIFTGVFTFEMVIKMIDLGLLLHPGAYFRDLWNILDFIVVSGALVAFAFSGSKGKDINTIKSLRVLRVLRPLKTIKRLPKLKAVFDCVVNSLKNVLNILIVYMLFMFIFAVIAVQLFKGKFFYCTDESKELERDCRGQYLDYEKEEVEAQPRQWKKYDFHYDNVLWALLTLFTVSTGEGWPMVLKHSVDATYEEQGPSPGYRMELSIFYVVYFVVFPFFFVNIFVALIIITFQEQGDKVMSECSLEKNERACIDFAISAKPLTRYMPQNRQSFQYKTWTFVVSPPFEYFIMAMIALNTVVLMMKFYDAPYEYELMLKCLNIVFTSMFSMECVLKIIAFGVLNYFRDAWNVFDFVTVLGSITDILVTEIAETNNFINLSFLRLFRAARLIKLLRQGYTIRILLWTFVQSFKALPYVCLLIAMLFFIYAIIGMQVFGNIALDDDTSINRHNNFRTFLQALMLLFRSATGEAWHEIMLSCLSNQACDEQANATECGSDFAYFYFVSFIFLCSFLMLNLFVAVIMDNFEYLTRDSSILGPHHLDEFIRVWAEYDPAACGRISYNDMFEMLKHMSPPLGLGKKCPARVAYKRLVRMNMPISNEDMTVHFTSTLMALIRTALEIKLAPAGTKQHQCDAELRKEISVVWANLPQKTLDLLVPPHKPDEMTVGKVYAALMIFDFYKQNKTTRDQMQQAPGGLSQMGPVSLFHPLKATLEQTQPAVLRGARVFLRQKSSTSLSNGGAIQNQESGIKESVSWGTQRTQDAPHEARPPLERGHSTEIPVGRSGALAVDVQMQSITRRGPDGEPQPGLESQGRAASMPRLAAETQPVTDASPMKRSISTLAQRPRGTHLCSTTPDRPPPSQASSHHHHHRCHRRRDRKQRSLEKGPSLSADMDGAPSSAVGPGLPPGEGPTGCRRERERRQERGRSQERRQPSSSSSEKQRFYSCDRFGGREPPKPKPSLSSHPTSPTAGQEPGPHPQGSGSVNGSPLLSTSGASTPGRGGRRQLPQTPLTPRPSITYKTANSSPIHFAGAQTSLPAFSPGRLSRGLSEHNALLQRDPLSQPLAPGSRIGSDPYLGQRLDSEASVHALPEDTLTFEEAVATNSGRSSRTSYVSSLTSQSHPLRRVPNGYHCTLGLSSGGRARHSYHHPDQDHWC

Sequence: YGRKKRRQRRR [standard tat peptide]
- binding to and inhibition of N-type calcium channels: binds to and inhibits N-type calcium channels
